In the Human Domainome abundance scans (Beltran et al. 2025):
± gives the uncertainty stated by the source.

B1: Dystrobrevin alpha, residues 235 to 294; numbered along this chain, Q9Y4J8 (parent)
chain: ENVFHPVECSYCHSESMMGFRYRCQQCHNYQLCQDCFWRGHAGGSHSNQHQMKEYTSWKS

Variants of: B1
Experiment: abundance fitness (aPCA) (normalised: wild type 0, dead -1); higher = more abundant; growth selection in yeast, the domain comes from the species named
Settings: Homo sapiens

Abundance fitness: each site, then its substitutions
W58: M 0.251 ± 0.068; D 0.284 ± 0.07; G 0.192 ± 0.044; H 0.105 ± 0.15; N 0.232 ± 0.12; S 0.057 ± 0.06; A 0.258 ± 0.05; F -0.021 ± 0.083; E 0.297 ± 0.097; Y 0.142 ± 0.26; Q -0.127 ± 0.15; R 0.077 ± 0.051; V 0.224 ± 0.057; L 0.019 ± 0.068; K 0.195 ± 0.099; T 0.258 ± 0.075; C 0.003 ± 0.07
K53: M -0.108 ± 0.092; V 0.137 ± 0.065; G -0.248 ± 0.052; Y -0.262 ± 0.11; D -0.16 ± 0.12; F -0.313 ± 0.097; P -0.592 ± 0.13; R -0.111 ± 0.053; Q 0.026 ± 0.089; I -0.111 ± 0.1; C -0.137 ± 0.068; H -0.167 ± 0.21; L -0.108 ± 0.061; W -0.459 ± 0.089; A -0.135 ± 0.083; T -0.154 ± 0.085; E -0.029 ± 0.078; S -0.11 ± 0.07
S57: Q -0.059 ± 0.089; F -0.391 ± 0.085; R -0.152 ± 0.056; D 0.071 ± 0.12; T 0.008 ± 0.064; P 0.171 ± 0.077; L -0.165 ± 0.056; I -0.11 ± 0.11; C 0.074 ± 0.065; N -0.291 ± 0.12; G -0.044 ± 0.08; Y -0.395 ± 0.13; W -0.192 ± 0.089; K -0.019 ± 0.069; M 0.036 ± 0.081; H 0.124 ± 0.08; V 0.005 ± 0.068; E 0.058 ± 0.072; A 0.085 ± 0.064
N48: C -0.063 ± 0.087; V 0.037 ± 0.063; F -0.274 ± 0.08; W -0.532 ± 0.092; G -0.045 ± 0.052; L -0.22 ± 0.065; P 0.108 ± 0.095; T -0.042 ± 0.081; H -0.174 ± 0.083; Q -0.084 ± 0.12; E -0.167 ± 0.12; A 0.007 ± 0.059; R -0.182 ± 0.055; Y -0.318 ± 0.16; M -0.149 ± 0.058; I -0.177 ± 0.1; K -0.248 ± 0.13
E54: G -0.29 ± 0.5; T 0.312 ± 0.21
A42: E 0.081 ± 0.072; H 0.05 ± 0.18; N -0.077 ± 0.11; R -0.032 ± 0.055; K -0.224 ± 0.091; I -0.372 ± 0.22; L -0.285 ± 0.06; G -0.026 ± 0.055; P -0.421 ± 0.092; V 0.005 ± 0.062; W -0.29 ± 0.099; T -0.054 ± 0.065; M -0.04 ± 0.086; Y -0.381 ± 0.21; Q -0.071 ± 0.1; D -0.253 ± 0.14
G44: P -0.523 ± 0.16; L -0.621 ± 0.094; V -0.234 ± 0.097; E -0.303 ± 0.15; N -0.285 ± 0.14; H -0.818 ± 0.26; D 0.077 ± 0.15; C -0.362 ± 0.11; K -0.177 ± 0.099; I -0.719 ± 0.25; Q -0.841 ± 0.26; T -0.26 ± 0.099; M -0.384 ± 0.14; Y -0.411 ± 0.19; S -0.209 ± 0.096; F -1.15 ± 0.21; W -0.616 ± 0.19
S60: C -0.276 ± 0.14; L -0.196 ± 0.12; A -0.446 ± 0.24; N -0.216 ± 0.34; F 0.02 ± 0.12; I -0.519 ± 0.14; P -0.065 ± 0.092; G 0.064 ± 0.48; R 0.134 ± 0.15; H 0.112 ± 0.26; Q 0.216 ± 0.15; D 0.335 ± 0.37
G40: N -0.138 ± 0.15; K -0.045 ± 0.093; W -0.352 ± 0.099; V -0.266 ± 0.038; I -0.27 ± 0.09; R -0.206 ± 0.065; F -0.193 ± 0.081; Q -0.281 ± 0.12; D -0.166 ± 0.14; E -0.284 ± 0.092; L -0.384 ± 0.056; T -0.366 ± 0.1; S -0.229 ± 0.065; M -0.404 ± 0.16
H50: M -0.503 ± 0.058; Q -0.509 ± 0.058; K -0.438 ± 0.073; V -0.686 ± 0.049; D -0.411 ± 0.055; L -0.622 ± 0.052; I -0.524 ± 0.064; F -0.755 ± 0.084; Y -0.527 ± 0.076; G -0.493 ± 0.048; A -0.543 ± 0.053; C -0.301 ± 0.067; E -0.516 ± 0.08; P -0.463 ± 0.052; N -0.493 ± 0.062; W -0.624 ± 0.07
Y55: E 0.117 ± 0.1; H -0.134 ± 0.27; L 0.06 ± 0.075; S 0.245 ± 0.058; A -0.064 ± 0.079; K -0.609 ± 0.23; F -0.155 ± 0.098; N -0.144 ± 0.19; Q -0.071 ± 0.086; R -0.11 ± 0.066; D 0.243 ± 0.093; W 0.06 ± 0.04; V 0.238 ± 0.068; C 0.209 ± 0.085; T 0.104 ± 0.095; I -0.066 ± 0.1; P -0.078 ± 0.12
H46: G -0.165 ± 0.087; Y -0.538 ± 0.12; V -0.227 ± 0.076; T -0.219 ± 0.073; D -0.2 ± 0.085; F -0.514 ± 0.14; P -0.27 ± 0.093; L -0.419 ± 0.078; N -0.316 ± 0.14; E -0.198 ± 0.081; R -0.189 ± 0.076; I -0.366 ± 0.094; A -0.186 ± 0.073; C -0.366 ± 0.11; Q -0.331 ± 0.13; K -0.117 ± 0.1; M -0.17 ± 0.073; W -0.427 ± 0.16
T56: E 0.307 ± 0.12; V -0.137 ± 0.06; L -0.462 ± 0.064; W -0.605 ± 0.093; R -0.061 ± 0.044; D 0.188 ± 0.076; H -0.025 ± 0.1; P 0.126 ± 0.059; Q 0.044 ± 0.09; I -0.218 ± 0.097; G 0.024 ± 0.057; F -0.642 ± 0.18; N -0.045 ± 0.19; A 0.017 ± 0.061; Y -0.509 ± 0.1; C 0.076 ± 0.091; M -0.151 ± 0.12; S 0.104 ± 0.057; K 0.066 ± 0.1
S45: Q -0.121 ± 0.15; N -0.13 ± 0.13; K 0.031 ± 0.076; I -0.394 ± 0.14; D 0.163 ± 0.07; W -0.287 ± 0.087; P -0.043 ± 0.083; L -0.163 ± 0.083; H -0.291 ± 0.14; Y -0.605 ± 0.2; G 0.099 ± 0.045; C 0.06 ± 0.068; E 0.065 ± 0.067; T 0.098 ± 0.07; R -0.159 ± 0.046; M -0.269 ± 0.11
H41: R 0.067 ± 0.047; V 0.122 ± 0.055; Q 0.146 ± 0.12; S 0.037 ± 0.057; N 0.063 ± 0.084; F -0.044 ± 0.077; Y -0.127 ± 0.18; A 0.013 ± 0.082; D -0.296 ± 0.1; P -0.192 ± 0.08; E -0.09 ± 0.078; G -0.312 ± 0.076; L -0.038 ± 0.061; W -0.323 ± 0.093; C 0.013 ± 0.082; M -0.014 ± 0.14; K 0.089 ± 0.085; I -0.284 ± 0.1
Q51: A -0.066 ± 0.098; I 0.009 ± 0.078; M -0.334 ± 0.11; K 0.046 ± 0.068; H -0.319 ± 0.13; S 0.062 ± 0.06; F -0.536 ± 0.18; C -0.148 ± 0.082; N -0.095 ± 0.086; G -0.234 ± 0.074; V -0.117 ± 0.062; D 0.101 ± 0.06; L -0.153 ± 0.062; W -0.517 ± 0.095; T 0.042 ± 0.059; P -0.091 ± 0.086; Y 0.077 ± 0.13
S47: C -0.103 ± 0.074; L -0.333 ± 0.086; Y -0.57 ± 0.099; I -0.25 ± 0.076; W -0.051 ± 0.095; P -0.172 ± 0.072; H -0.091 ± 0.15; V -0.199 ± 0.051; K 0.038 ± 0.087; E -0.028 ± 0.064; D 0.044 ± 0.056; G -0.22 ± 0.046; M -0.322 ± 0.079; R -0.118 ± 0.053; F -0.455 ± 0.12; Q -0.031 ± 0.11; A -0.349 ± 0.054; N 0.029 ± 0.058
G43: S 0.09 ± 0.063; H -0.09 ± 0.15; W -0.208 ± 0.13; E 0.087 ± 0.065; I -0.685 ± 0.19; N 0.121 ± 0.13; L -0.221 ± 0.064; T -0.139 ± 0.086; M -0.068 ± 0.15; V -0.352 ± 0.073; D 0.325 ± 0.1; P -0.765 ± 0.15; A -0.325 ± 0.073; F -0.542 ± 0.12; C -0.034 ± 0.081
M52: L -0.248 ± 0.072; W -0.449 ± 0.099; I -0.3 ± 0.1; F -0.005 ± 0.096; K -0.62 ± 0.12; E -0.567 ± 0.15; H -0.87 ± 0.23; N -0.764 ± 0.27; Q -0.294 ± 0.14; P -0.478 ± 0.094; C -0.194 ± 0.12; Y -0.18 ± 0.11; D -0.471 ± 0.12; R -0.792 ± 0.078; V -0.025 ± 0.088; S -0.628 ± 0.09; G -0.554 ± 0.071
Q49: L -0.003 ± 0.034; R 0.017 ± 0.035; H -0.141 ± 0.076; T 0.072 ± 0.041; Y -0.256 ± 0.046; S 0.029 ± 0.036; C -0.083 ± 0.049; V -0.034 ± 0.036; D 0.128 ± 0.06; A 0.073 ± 0.031; P -0.249 ± 0.052; G 0.103 ± 0.038; I -0.205 ± 0.06; K -0.14 ± 0.046; N 0.019 ± 0.062; F -0.138 ± 0.059
K59: F -0.142 ± 0.1; A 0.082 ± 0.079; L -0.013 ± 0.085; P -0.034 ± 0.32; H 0.074 ± 0.1; G 0.229 ± 0.08; E -0.127 ± 0.15; I -0.392 ± 0.38; Q 0.126 ± 0.12; Y -0.099 ± 0.19; C -0.001 ± 0.086; V -0.105 ± 0.11; T 0.049 ± 0.083; N 0.017 ± 0.3; D 0.356 ± 0.21
